“And” between values parts separate entries of the source, which are not always exact repeats. Identical values can stand only once.

The test addresses Pomacea canaliculata hemocyanin (PcH), native (Pomacea canaliculata). Kind of test: negative-stain transmission electron microscopy; native PcH 0.12 g/L in 20 mM Tris-HCl pH 7.4, 20 mM CaCl2, 20 mM MgCl2; 2% uranyl acetate, room temperature; self-association of subunits into decamers stacked to multi-decamers.

With “Pomacea canaliculata hemocyanin (PcH), native (complex)”, the stoichiometry N (usually the number of molecules, sites or subunits per partner or assembly) was 20 subunits and 30 subunits and 40 subunits.

(Values after paper PMC6992001.)
